{"source": "the DeepSol protein solubility set"}
{"assay": "soluble on expression in E. coli; label from the status in PepcDB or PDB records"}
{"sequence": "MCSLNELITGIKELPEPDLTASRLMDAAADYVPLKLRGHIDAKDINSSPKTLENGGTEFFQALIDITHPRLRLYGSGKELAENVRIHRNFPTSHRSPIIYKSLDNNQYIYKTDVFIIIQNICGYRKDSTNNIIELNRFLEVMYLKAREETSRKYLEFVRFDADSFRKIEKKFEKFNQGACFVDRSLEQRNSNGDHLPIVQELDSMKSIEFIQHPIQRAKHKAVPIEDLKPGSYCILAVDALFELFNEIIWGSRVFEKHKVPKIIEYVLKIPTLLFKSELRFPHFIKTAHLHRLLASFEVSLSSFHFPANPVKEVRNAKADHGFTLQNLKNELTYLGLTETFPDITDYAEIAYNEVMRVKKEMLLRTCDLFDAIEHCQLLCIFNRSPFLKQFLHNQKACHRLVGLHCDLCIKEKVEKSENQEAWDLDESSSTKSPIDCKKCSQTLQTIEDVKKELKTSQNKENKMRKKVSELEKKLDVENVQNEQEVKEMEDDLRGKQEELNILRNDSLKVHDVLMEIADLKQKHSKLEKHVEGLKEENLKQERNYNLTQSNLEANLSSMREGLTILQQYTEELEQERQKYQEMLTARSEETSVQAEPAGGEEEMLDVTKQIEEAKEEKIRLKAEHDANERIIQQLLDKLANFS", "soluble on expression in E. coli": "not soluble"}
{"sequence": "MCTVSLCVSLCLWMHNETVQVAMALEFKDKWLEQFYEDDKRHRLIPSSIENALFRKLEILDAAQAESDLRIPPGNRFEHLEGNLKGWCSIRVNKQYRLIFQWVDGVALNTYLDPHKY", "soluble on expression in E. coli": "not soluble"}
{"sequence": "MDADDLRQLAINVSMDDIAASRDATKRLQQLFTPQQIVAMLKDAPSTHALRVLVGEMEAVGNPDVFHLIGGVLEDVFTQPSRESKAVLFAPAAQFLVEFIVRSAAAADTAVASSMSKALHRLIAIAGDSTEAAAFLGPCLDANFHNEQVLRLFDCDAVESAENKTVCGFLEQWTSLLPFMFEATLDAFENDPLLQANYTIASGVACRTVDVPSALRQRTMDILRAKDDSLCFAYVCRFWSIALLRHEANGQRDAAACVSTVMPAAEASERDERATEAIFDLLGSAASTQAGWDAVTRQLPCKTLQVRLSSTSPSLRLSTLNLMLCMLTSPHMNVSFFTKDLLLDAWQTRTSPDDMVRLALWRVANAALLQESLNRMLGAACASFLSSGAHEENVAVRSLKLTAAERLLRHSTLPENVKARLSQVVERGLYPAGSSGVSLIAKD", "soluble on expression in E. coli": "not soluble"}
{"sequence": "MDADKDNIKQACDERSAEMDDMRGEQSMGLVHEIMSENKELDEEIKKLEAELQSDAREFQIKENVPEKKLKLTSVESPEDGCHFSNSSCSFQVSSQILYELQKGQALITFEKEEVAQNVISMGNHVVQMEGTPVKVSAHPVPLNTGVRFQVHVDISKMKINVTGIPDELSEEQTRDKLELSFCKSRNGGGEVESVDYDRKSRSAVITFVETGVVDKILKKKTYPLYMNQKCHSVAVSPCIERRLEKYQVFSAVSKKTVLLTGLEGIRVDEETGEDLLNIHFQRKNNGGGEVEVVKCSLDQSFAAYFKEEARETI", "soluble on expression in E. coli": "not soluble"}
{"sequence": "MDAELLEIYNFLAKYPPFNELPEETLTKVTESVEISYYRQDTPIIHFGDHIQDLFVVRSGVVEVYRRKGELYNRLDEGDLFGQMGLLTNNKVRFPVKAIEDTLLYCIPVEVFQEIYDNFDSFADFVEVENSARLRQTISENKDANDLTTSKVKTLLTGDAPTINRGQTIQQAAQLMAQDNISSLLIVDPDFVLDEDDPQSPVLGIITDRDLCTRVLAEGLSPQDDVSTVMTTEVISLDHNAYIYEAMLTMLRYNVHHLPVVKNQLPIGIIETTDIVRYESQNSLLLVSSIFQQQSIEDLATVAEEVKSSFVRLVNEDANSHMVGSAMSVIGRSFKQRLLELAEEELGAPPIPYCFLALGSMGRDEQLLVTDQDNAIILDESYQEEKHGKYFEDLAKFVSDGLDACGYKYCTGDIMATNPMWRMTRSEWEECFADWIDDPNPKALLNASIFFDLDGVYGRLKWAEQLTSFIVRRARKNNRFLACLARNALNRTPPLGFFKDFVMEKDGQHKNSINLKRRGTAPLVDLIRVHALAVGSRAQNSFERLDDIIDAGILPKGRAQDLKDALEFISMVRIRHQATDVELGIEPDNNIEPENLSDFERRNLKDAFQILSNGQNFLKFRYQANKSFK", "soluble on expression in E. coli": "not soluble"}
{"sequence": "MDAEQLLKAITPEVYDRLVYAVETGRWPEGTTLSREQRDSCMQAVMLYQSKHNTEAQHMTVAAGGEISFKSKQELKKQFNTDESDIVRVNPNLD", "soluble on expression in E. coli": "not soluble"}
{"sequence": "MDAFIVDPVQGELYSGLSHTELADIIRLADSVENQLNGGNSFLDVFSTYMGQVISEFMHSNDNRIELLQRRLHSCSFLVNIEEMSYIDEALQCPITLAIPQRGVFLRNAEGSRVCSLYDEMALSRIINDGMHHPLSREPITLSMLVAREQCEFDCSIGHFTVRSDCYSV", "soluble on expression in E. coli": "soluble"}
{"sequence": "MDALVANYASDSDSDGDAPAATAGEAAPVPPEPSALLPPPPLDLLQPPNFVDCSTMAQGSRVRSFPHVEGNYALHVYIPVVIPSDAKKHLVLVMRRAASFVPDLYAIDADYALSELCKDEQKLEKVLLSREFHVSLGRTVAIQVHQIESLVAMLRQKFRSQQRYWMDFNKWEHFVNDDCTRSFLSLEVTSTGLPEISKQITMVDDVYRLHGLPEFYKNPRPHISLAWALGDVSCKLKQAIKEIEKSQSSLGTSQISNLRCKFSHVVCKIGKKVYDICKLAD", "soluble on expression in E. coli": "not soluble"}
{"sequence": "MDANTLNVSFEEILKGKKLDEDSIGLTLSPDKDHEDGSQVSPTQDRKELDQVVGEDEKDDFFE", "soluble on expression in E. coli": "soluble"}
{"sequence": "MDATDDIRAGELASDWSGSPDAGVVFIGRIHTPWNRLKECPRHGRADGPVCRIEVFETWLPALAGIDDGTLLEVFYWLHRSRRDLLLQCPRNDGDARGTFSIRSPLRPNPIGTSIARVDRRDGANLFIRGLDCLDGTPLVDLKPDRAEFMPLAPPKPGDFQVGEPRR", "soluble on expression in E. coli": "soluble"}
{"sequence": "MDAYEIIQYIGDAKKQTLVKVTLKGQLKEVTFPETIKVFNNCKTGTLFGDWADVKPFLEANKEKIEDYVVENDARNSAIPFLDLKDINARIEPGALIREKVEIGDQAVIMMGAILNIGAVVGAGTMIDMGAVLGGRATVGKHCHIGAGTVLAGVIEPPSAAPVVIENEVVIGANAVVLEGVRVGEGAVVAAGAVVVEDVPAHTVVAGVPAKVIKQIDDKTKSKTEILEELRKL", "soluble on expression in E. coli": "soluble"}
{"sequence": "MDCRLGCGACCIAPSISSPIPGMPKGKPAGVRCVQLNDDNLCKLFGKPERPKVCHDFKPCPVVCGKTNQEALDNITELEQLTLEHHHHHH", "soluble on expression in E. coli": "soluble"}
{"sequence": "MDDDPHFDQNVQTVIAKTEAYITESVKAGGTGRALRDAHAKGYGLVRGEVEILDGLPPEYAQGIYATPGTHDALIRFSNGSPHAGADARLGAATGLALKIFDIPGPTLLEDEPDTGTFDYANINGPIFFCNTVEHYLFIQELFLNAPAYFSQGRPGAHRFFTDFVTGKGTLDQDDWAWDEFLAFLRLSKTPPANLLLSSYWTMGAVRHGDYIAKVRITPDPSFAAAVVRRDIDPTSAQEVFRPALEAELQERPYAFDIQVQLCTDLERMPVEDTTVEWPEQLSPSVTVAKLRLPRQDISGPENLEKMDSLSFTPWRVTAEHAPLGNIMRSRKEVYRQSSMERHKLEHHHHHH", "soluble on expression in E. coli": "not soluble"}
{"sequence": "MDDLPYLARGVMPVETPSSVLVSSSKYLNNPRLREWLAMILLRKNGPDFPPPAEMYEFLPILEELRDHDRIEAMFAEERRVNPELDAWLSEGFYSTYAIEDFRQFAPGTLGGIFYQWITEGNYEIQITPWREPKSQLEFYNLRSGQTHDFEHILCGGGFNFMGELVPYWYRLTNVFKHIRNQELAAELSMIQIFGSLRYTVRTMLHYPQIWMTCVDAIQRGMKVGQESDALFMKKLEPHFHLPLEEARAALGVRGAVDVDTEIEGAFWAGRAPLSALTERIAAELEHHHHHH", "soluble on expression in E. coli": "soluble"}
{"sequence": "MDEEDPINPCFQTISMGGGYVSGEIYRSDFEINDDARCIITTQSSAKAYKTVDGKTSEQHTNITLGKNSILEYISDNVIVYEDGKFAQFNNFKMDSSATLIYTECFGPGSPHGSAYQYEKMYLNTKIYYDDKLVLFDNLKFQPRKNDESAFGIMDGYHYCGTMIVINQQVIEDDVIKIRDLVKEKYPDMDMIFGVSRMDIPGLGLRVLANTYYHVEKINAVAHDYFRRKLFNKKPLILRKPLEHHHHHH", "soluble on expression in E. coli": "not soluble"}
{"sequence": "MDEFEMIKRNTSEIISEEELREVLKKDEKSAIIGFEPSGKIHLGHYLQIKKMIDLQNAGFDIIILLADLFAYLNQKGELDEIRKIGDYNKKVFEAMGLKAKYVYGSSFMLDKDYTLNVYRLALKTTLKRARRSMELIAREDENPKVAEVIYPIMQVNPLHYEGVDVAVGGMEQRKIHMLARELLPKKVVCIHNPVLTGLDGEGKMSSSKGNFIAVDDSPEEIRAKIKKAYCPAGVVEGNPIMEIAKYFLEYPLTIKRPEKFGGDLTVNSYEELESLFKNKELHPMDLKNAVAEELIKILEPIRKRLLEHHHHHH", "soluble on expression in E. coli": "soluble"}
{"sequence": "MDEQEIQRLVEEVSLQYFGMPFLHKAMFNSRLRTTGGRYLLNTHNIELNYRYYEMYGKEELVGIVKHELCHYHLHITGRGYKHRDKDFRELLKAVDAPRFCKRMINEEKGKKVYMYECMECSLQYVRRRQINTKRYVCGKCKGKLILIKKTSLEHHHHHH", "soluble on expression in E. coli": "not soluble"}
{"sequence": "MDFISSLIVGCAQVLCESMNMAERRGHKTDLRQAITDLETAIGDLKAIRDDLTLRIQQDGLEGRSCSNRAREWLSAVQVTETKTALLLVRFRRREQRTRMRRRYLSCFGCADYKLCKKVSAILKSIGELRERSEAIKTDGGSIQVTCREIPIKSVVGNTTMMEQVLEFLSEEEERGIIGVYGPGGVGKTTLMQSINNELITKGHQYDVLIWVQMSREFGECTIQQAVGARLGLSWDEKETGENRALKIYRALRQKRFLLLLDDVWEEIDLEKTGVPRPDRENKCKVMFTTRSIALCNNMGAEYKLRVEFLEKKHAWELFCSKVWRKDLLESSSIRRLAEIIVSKCGGLPLALITLGGAMAHRETEEEWIHASEVLTRFPAEMKGMNYVFALLKFSYDNLESDLLRSCFLYCALFPEEHSIEIEQLVEYWVGEGFLTSSHGVNTIYKGYFLIGDLKAACLLETGDEKTQVKMHNVVRSFALWMASEQGTYKELILVEPSMGHTEAPKAENWRQALVISLLDNRIQTLPEKLICPKLTTLMLQQNSSLKKIPTGFFMHMPVLRVLDLSFTSITEIPLSIKYLVELYHLSMSGTKISVLPQELGNLRKLKHLDLQRTQFLQTIPRDAICWLSKLEVLNLYYSYAGWELQSFGEDEAEELGFADLEYLENLTTLGITVLSLETLKTLFEFGALHKHIQHLHVEECNELLYFNLPSLTNHGRNLRRLSIKSCHDLEYLVTPADFENDWLPSLEVLTLHSLHNLTRVWGNSVSQDCLRNIRCINISHCNKLKNVSWVQKLPKLEVIELFDCREIEELISEHESPSVEDPTLFPSLKTLRTRDLPELNSILPSRFSFQKVETLVITNCPRVKKLPFQERRTQMNLPTVYCEEKWWKALEKDQPNEELCYLPRFVPN", "soluble on expression in E. coli": "not soluble"}
{"sequence": "MDFSGKNVWVTGAGKGIGYATALAFVEAGAKVTGFDQAFTQEQYPFATEVMDVADAAQVAQVCQRLLAETERLDALVNAAGILRMGATDQLSKEDWQQTFAVNVGGAFNLFQQTMNQFRRQRGGAIVTVASDAAHTPRIGMSAYGASKAALKSLALSVGLELAGSGVRCNVVSPGSTDTDMQRTLWVSDDAEEQRIRGFGEQFKLGIPLGKIARPQEIANTILFLASDLASHITLQDIVVDGGSTLGA", "soluble on expression in E. coli": "soluble"}
{"sequence": "MDFSNRLLLLLEVTELGSFTNVAEQKNLDRSVISKQISRLEEELGVRLLNRTTRSLSLTAAGNEMVNQAKLLRDLLNNTHRLAQNYHSEPRGILRITSSMMFGRQYVQDAISVFQKQYPDVKCELRLEDRVVDIVQEGFDIGFRIGRPKNSSLISRKIARSRLLIVASPDFIQQHGKIETIEKLESLPATIYAAPGLFIDKFTYLDENKVEQQFHLNVAYKVNDVEMVVKSAVAGNTLAVVTAQMIENEIIEGKLIPIMTHLNLEDFGTFFAVYPHRDAPIKTKLFIDVLKSIIGEDSPMWEKNIPDFAKLYGGTK", "soluble on expression in E. coli": "not soluble"}
